B1: GS2680 (nucleic acid)
sense: UACUAACAAACUGUCCACCAAAAGUAUAUAUAAUUCCUGCAACUGAGGGAGUAGAUCGCUUGCAAAUAAAAUCAAAAUCUAGCAUUCCUUGAACAGCUCUAGGCUGAAGACCAUAGACGAAACAUCUUGUUUUAUCAUGGAAGAGUGUAUGAGUUGCGUGAGGGCUCAAUGGGCGGCUAGGAGCAGCAAACCGACAGAUGUUAUCAUUGGCUGAUUGCCCAACUUUCGUAGUAUCAUUUGGAGUAGCUGAUGGCAUUUUAAAAUAUUACAAGGUCACAGAGUGUAAUUUUGGGCCUGAUUUCUUCUGUAGAGAUGACUCAAGUAGUAAUAUUUAUCUCUUUCAAUGGUGUAGUAUAUUAAUAGUAUACUCGGGAGAGAAAAUGAUGUGAUAAAAAUUA
antisense: UAAUUUUUAUCACAUCAUUUUCUCUCCCGAGUAUACUAUUAAUAUACUACACCAUUGAAAGAGAUAAAUAUUACUACUUGAGUCAUCUCUACAGAAGAAAUCAGGCCCAAAAUUACACUCUGUGACCUUGUAAUAUUUUAAAAUGCCAUCAGCUACUCCAAAUGAUACUACGAAAGUUGGGCAAUCAGCCAAUGAUAACAUCUGUCGGUUUGCUGCUCCUAGCCGCCCAUUGAGCCCUCACGCAACUCAUACACUCUUCCAUGAUAAAACAAGAUGUUUCGUCUAUGGUCUUCAGCCUAGAGCUGUUCAAGGAAUGCUAGAUUUUGAUUUUAUUUGCAAGCGAUCUACUCCCUCAGUUGCAGGAAUUAUAUAUACUUUUGGUGGACAGUUUGUUAGUA
B2: GS2684 (nucleic acid)
sense: UUGGCAGCUCGCCAUUUCUUAUCAAAGAGAUACCUAAAUGAUAAACUUAAAAUACUUGCAGUGAAUAUAUCUGCUAGAGUAAGACGCUCUCCAACUAAGAAUGUGUUGUUUUGAAGAGUAUCCUCAAAAAUUUGAGCAUAAUCGAUUGUUUUUUUGACACCUUCAUCAUAAACCUUUUUAUUGUAUGCGACAAUACCAAAAAAAGGAUAAAGCCAGCUGGCAUAGCAGUUACUAAUAUCUUGAUUGACAAAAGACAUCCACUUUAAAAUAGAGGCAUAAGUCUAAUUAUGAAAGUCCACACGGAGUGUUAAGACAGGGACUGUUUUAUGUCAAGGAAAAUUUUUCAACUGAGAGAGCUUAGCAUACUCCUGCUUGGUUUU
antisense: AAAACCAAGCAGGAGUAUGCUAAGCUCUCUCAGUUGAAAAAUUUUCCUUGACAUAAAACAGUCCCUGUCUUAACACUCCGUGUGGACUUUCAUAAUUAGACUUAUGCCUCUAUUUUAAAGUGGAUGUCUUUUGUCAAUCAAGAUAUUAGUAACUGCUAUGCCAGCUGGCUUUAUCCUUUUUUUGGUAUUGUCGCAUACAAUAAAAAGGUUUAUGAUGAAGGUGUCAAAAAAACAAUCGAUUAUGCUCAAAUUUUUGAGGAUACUCUUCAAAACAACACAUUCUUAGUUGGAGAGCGUCUUACUCUAGCAGAUAUAUUCACUGCAAGUAUUUUAAGUUUAUCAUUUAGGUAUCUCUUUGAUAAGAAAUGGCGAGCUGCCAA
B3: GS2685 (nucleic acid)
sense: GUCUCAUAUCACGAACAGCGAAGCGACCUAAUGGAGGAUAACUUGAAAAUGACUCAACACACAUAGGUUUAGAUGGAAUCAUUUUAACAAUUGCUGCGUCACCAGAUUUAACAAAUUUUGGAGUUGCCUCAAUAGACUUUCCAGUACGACGAUCAAUUUUUUCAAGAAGUUCUGCAAAUUUGCAAGCAAUGUGAGCCGUAUGACAAUCAAGUACAGGUGCGUAACCAGCUCCAAUUUGACCUGGGUGGUUUAACACGAUAACUUGUGCGGUAAAAUGCUCGGCACCCUUAGGGGGGUCAUUCUUAGAAUCACCACAAACAUUACCACGACGGAUUUCUUUCACCGAAACGUUCUUUACAUUGAAGCCAA
antisense: UUGGCUUCAAUGUAAAGAACGUUUCGGUGAAAGAAAUCCGUCGUGGUAAUGUUUGUGGUGAUUCUAAGAAUGACCCCCCUAAGGGUGCCGAGCAUUUUACCGCACAAGUUAUCGUGUUAAACCACCCAGGUCAAAUUGGAGCUGGUUACGCACCUGUACUUGAUUGUCAUACGGCUCACAUUGCUUGCAAAUUUGCAGAACUUCUUGAAAAAAUUGAUCGUCGUACUGGAAAGUCUAUUGAGGCAACUCCAAAAUUUGUUAAAUCUGGUGACGCAGCAAUUGUUAAAAUGAUUCCAUCUAAACCUAUGUGUGUUGAGUCAUUUUCAAGUUAUCCUCCAUUAGGUCGCUUCGCUGUUCGUGAUAUGAGAC
B4: GS2732 (nucleic acid)
sense: GGAAAAUGUGAGUUGCCGCCAUCGAUAAUUAUGUCUCCUUGAUCGAGGAAUGGCAAUAAUGUUUCAAUAAAAUCAUCAACAGGCUUUCCAGCCAUGACAAGCAGCAUAAUACGACGUGGUUUUUUUAGUUUACUCACAAAUUCCUGGAUAGAACGAGCACCUUCAAUAGAUUUCCCUUUUGCCUCAUUUUCAAGAAAGUGGUCUACCUUAGCUACAGUUCGAUUAUAUGCAAUAACAUUAAAUCCAUGGUCUGCAGCAUUCAGAAUUAGAUUCUGCCCCAUGACAGCUAGACCGAUAAGGCCAAAGUCUCCUGUAGCAGCACUCAUAUUUUUUUGAUUAUAAAUUUAGAAGCCCAAAGACUGGAGCUUAUAUGGAGAACAGAGAUUACACAGAUGGGA
antisense: UCCCAUCUGUGUAAUCUCUGUUCUCCAUAUAAGCUCCAGUCUUUGGGCUUCUAAAUUUAUAAUCAAAAAAAUAUGAGUGCUGCUACAGGAGACUUUGGCCUUAUCGGUCUAGCUGUCAUGGGGCAGAAUCUAAUUCUGAAUGCUGCAGACCAUGGAUUUAAUGUUAUUGCAUAUAAUCGAACUGUAGCUAAGGUAGACCACUUUCUUGAAAAUGAGGCAAAAGGGAAAUCUAUUGAAGGUGCUCGUUCUAUCCAGGAAUUUGUGAGUAAACUAAAAAAACCACGUCGUAUUAUGCUGCUUGUCAUGGCUGGAAAGCCUGUUGAUGAUUUUAUUGAAACAUUAUUGCCAUUCCUCGAUCAAGGAGACAUAAUUAUCGAUGGCGGCAACUCACAUUUUCC
B5: GS2799 (nucleic acid)
sense: UAGCAACGGGACGUCCACUUUGUACUCUUACAGCUUCACGUGUAUUAUCAAUCACUGAUUGAUGGUACUCAUGAGAGCCAUGAGAAAAAUUCAUACGGACAACAUUCAGACCAGCUCUUCGAAGUCCAUUUAAGGCCUCGACAUUGUUAGUUUUGGGGCCAAUAGUACAGAUAAUCGAGGUUCGACGAUAAUUCUUAGAGGUGGCAUACUCAGUGUCAAGUUGUGAUAGCCAUUCAAUGCGAGUAGAGCUGGUUAGGUGAUUCAUAGCUGAAACCAUAUUUUGAUCUAAUGAGAACUUUUAUUUGAUGUGAACGUAAAUAGUUGAGGAUGUGUAAAGUUGAGGAGAGAGUUGGCCAAAGAUACUCUUUGAGGGUAGCAAAUUUCGUUUAUCUUAUUAU
antisense: AUAAUAAGAUAAACGAAAUUUGCUACCCUCAAAGAGUAUCUUUGGCCAACUCUCUCCUCAACUUUACACAUCCUCAACUAUUUACGUUCACAUCAAAUAAAAGUUCUCAUUAGAUCAAAAUAUGGUUUCAGCUAUGAAUCACCUAACCAGCUCUACUCGCAUUGAAUGGCUAUCACAACUUGACACUGAGUAUGCCACCUCUAAGAAUUAUCGUCGAACCUCGAUUAUCUGUACUAUUGGCCCCAAAACUAACAAUGUCGAGGCCUUAAAUGGACUUCGAAGAGCUGGUCUGAAUGUUGUCCGUAUGAAUUUUUCUCAUGGCUCUCAUGAGUACCAUCAAUCAGUGAUUGAUAAUACACGUGAAGCUGUAAGAGUACAAAGUGGACGUCCCGUUGCUA
B6: ES49: dsRNA trigger SEQ ID NO 112; gene target Hypotethical effector (nucleic acid)
DNA: ATGCGTTTCATCATAGGAGCTGTCGTCTCTTCACTCATTTTGTCGCCAATTTCAGTGCTTTCTATGGCGGCTAGTAATGACTCTACCGAAGCTGCAGCGCATATCATAAATGATTCTATACTAGAAGATGTTTCGAACGTTGCAGATTTCGACTGGTCTTCAACGTCATATCAAGGCCTAGAGAAAAGATTTTGTTTCAGACGAGGATGCAAGGAAGAAAAGCTCAAGAGGACATCAGGTTTCCAATGCAAAAAGAAGTACATCAGCTCGGAGAAAATTGAGAGAGCAAAAGCCGCTGGCTGTCCGGAAATCAAAAAAAATAAGCAGCGATCCGCTTTTCCTTCTCTCTACACTGCATCCGACTTTGCTGTTCCAGGTCCTTACCTAGAATGGCCGATCAGCCGCAATGGAAGGTTTTGGAACAAATTGAGTAAGGGCAAGTACCGTATCATCATGACCAAAAGCTGCAAGGTGG
B7: GS2804 (nucleic acid)
sense: UUUUAAAGCUAUGUAUCCUCAAGUAACAGAAUUAGAAAACCUAGUUUUCAAAUUGAGAUUUUGGAAAAAAUCUAACAACCACUUCACUUGGCUCCAUCAAUUUUGGAAAUAUAACUUAGGAGAUCUAAAACACGGCGAGAGUAACCCCAUUCAUUAUCAUACCAUGAUACGAGUUUGACAAAGUUGUCAUUGAGCGAGAUUCCAGCUUUCGCGUCGAAAAUGGAUGAGUGAUUAUCACCGAUUAAAUCAGUUGAAACGAUGUCAUCCUCAGUAUAAGAAAGUAUGCCUUUUAAUUCACCAUUGGCAGCCUCCUUGAUAGCAGCCUUAAUUUGGUCAUAAGUAGCACCCUUUCCAAUGCGGCAUGUUAAGUCAACAACGGAAACAUUAGCAGUGGGUA
antisense: UACCCACUGCUAAUGUUUCCGUUGUUGACUUAACAUGCCGCAUUGGAAAGGGUGCUACUUAUGACCAAAUUAAGGCUGCUAUCAAGGAGGCUGCCAAUGGUGAAUUAAAAGGCAUACUUUCUUAUACUGAGGAUGACAUCGUUUCAACUGAUUUAAUCGGUGAUAAUCACUCAUCCAUUUUCGACGCGAAAGCUGGAAUCUCGCUCAAUGACAACUUUGUCAAACUCGUAUCAUGGUAUGAUAAUGAAUGGGGUUACUCUCGCCGUGUUUUAGAUCUCCUAAGUUAUAUUUCCAAAAUUGAUGGAGCCAAGUGAAGUGGUUGUUAGAUUUUUUCCAAAAUCUCAAUUUGAAAACUAGGUUUUCUAAUUCUGUUACUUGAGGAUACAUAGCUUUAAAA
B8: GS3295 (nucleic acid)
sense: UCAUCUUUUGCCGCUCUUUAUCAUGAUCUUGAUAUGGGAUUUACACCGAUCAACUUUACAUUUUACUGGGCACCUCUACCUUGGAAUCGUGCUCGUGAUCAUGCCCAAAGAACUGUUGCUAGGACGAACCUCGCUCCAAGGGGGCUUUAUGGGAAUCUGCCUCGUAGUAUAAAGUUCUGCAGCUGGCUCUACGGAUUGCAUCUACAACAACUACAACAUCAUCAUCAUCAUCAUCUUCAUCUUCAUCUUC
antisense: GAAGAUGAAGAUGAAGAUGAUGAUGAUGAUGAUGUUGUAGUUGUUGUAGAUGCAAUCCGUAGAGCCAGCUGCAGAACUUUAUACUACGAGGCAGAUUCCCAUAAAGCCCCCUUGGAGCGAGGUUCGUCCUAGCAACAGUUCUUUGGGCAUGAUCACGAGCACGAUUCCAAGGUAGAGGUGCCCAGUAAAAUGUAAAGUUGAUCGGUGUAAAUCCCAUAUCAAGAUCAUGAUAAAGAGCGGCAAAAGAUGA

Tested on: E. necator
Assay: Leaf disc assay, dry inoculum (settling tower), decrease in disease severity / hyphal growth (Example 2)
Details: decrease in disease severity (hyphal growth) relative to untreated control, value ± SE; for % decrease =/− SE TP1: time point 1 (untreated control hyphal growth ≥50%); for % decrease =/− SE TP2: time point 2

Molecule	% decrease =/− SE TP1 [%]	% decrease =/− SE TP2 [%]
B1	12 ± 4	11 ± 5
B2	31 ± 4	18 ± 4
B3	23 ± 0	15 ± 0
B4		18 ± 10
B5	31 ± 5	20 ± 8
B6	9 ± 1	6 ± 3
B7	32 ± 5	10 ± 8
B8	33 ± 6	26 ± 8
